Assay results published in the supplement of paper PMC9170038.

Tested on: MS2 coat protein
Experiment: apparent KD of MS2 coat protein; designed switch direction (-1 OFF switch, 1 ON switch): -1; higher = weaker reporter binding
Method in brief: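 Three titration conditions were used: no input, 200 uM small-molecule ligand, and an oligonucleotide input. In each, SNAP-549-labelled MS2 coat protein was raised from 0.7 or 1.5 nM, doubling, to 3 µM over designed RNA switches transcribed on Illumina chips by stalled E. coli RNA polymerase. Curve fits of normalised cluster fluorescence gave values whose per-design median over clusters is the apparent KD.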

[1] = input ligand: microRNA oligo, concentration not stated
[2] = Eterna round: R95, input ligand: microRNA oligo, concentration not stated
[3] = Eterna round: R95, input ligand: FMN 200 uM
[4] = Eterna round: R95, input ligand: none

Row | Sequence | apparent KD of MS2 coat protein (input ligand: FMN 200 uM) | apparent KD of MS2 coat protein (input ligand: none) | apparent KD of MS2 coat protein [2] | further results
1 | CUUGACUGAGGAUAUACGAGAUCGAAAGAUCGGCGAUCCCUACAUGAGGAUCACCCAUGUAGAAGGCAGUCAAG [Mod 14 - Jieux - Exclusion 2] (Eterna round: R97, puzzle: Exclusion 2) | 70.6 nM | 17 nM |  | 
2 | CUUGCACGACGAGGAUAUCGUAAACAUGAGGAUCACCCAUGUAGGUGGCGUCGUCCUCUAUCUUGCGAGAAGGCGUAAAAUUAA [Begeeda] (Eterna round: R96, puzzle: Exclusion NG 2) | 82.6 nM | 39.4 nM |  | apparent KD of MS2 coat protein [1]: 47.1 nM
3 | CUUGUGUUAGGAUAUGUUAAGCCGCCACCUGGCGGAUCAGGACAGAAGGAACAUGAGGAUCACCCAUGUAAAAG [Inenxele] (Eterna round: R97, puzzle: Exclusion 4) | 55.1 nM | 105 nM |  | 
4 | CUUGUUUAUGUAGGAUAUGCCUGGCGUGCCUUUGCAGAAGGACAUGAGGAUCACCCAUGUAUUGCGGUCUGCGUUCAGAUCGCG [salish99_ExNG1_r4_043] (Eterna round: R96, puzzle: Exclusion NG 1) | 39 nM | 34.9 nM |  | apparent KD of MS2 coat protein [1]: 25.8 nM
5 | CUUUACAAGCUAAGAUCCUACAUGAGGAUCACCCAUGUGGUCCGGUGACGUGAGUCACCGGACUUAGCUCGUCUUGA [salish99_S_TOV1_R5_093] (Eterna round: R97, puzzle: Sensor, turn-off variant 1) | 32 nM | 39.1 nM |  | 
6 | CUUUAGUGAGGAUAUCAGUAGUAAUACAAUAGUAUUAUUACUGAGAAGGCACAUGAGGAUCACCCAUGUUCCUC [Mat - Exclusion 4 - Mod of Omei - D81] (puzzle: Exclusion 4) |  |  | 26.9 nM | 
7 | CUUUCGUGAGGAUAUCAGUAGUAAUAAAAUAAAAUUACUACUGAGAAGGCACAUGAGGAUCACCCAUGUUCCUC [salish99_ex3_r3_098] (puzzle: Exclusion 4) |  |  | 23.5 nM | 
8 | CUUUCGUGAGGAUAUGUGGCUUCGAAAAUGAGAUCGAGGCUACAGAAGGCACAUGAGGAUCACCCAUGUUCCUC [salish99_ex4_r4_215] (Eterna round: R97, puzzle: Exclusion 4) | 400 nM | 35.6 nM |  | 
9 | CUUUGCACGCUGCGGUCCUACAUGAGGAUCACCCAUGUGGUCUGGUGGCGUGGGUCGCCGGACUUGGCUCGUCUUGG [salish99_S_TOV1_R5_042] (Eterna round: R97, puzzle: Sensor, turn-off variant 1) | 15.1 nM | 15.7 nM |  | 
10 | CUUUUGUGAGGAUAUCAGUAGUAAAUUAAUAAAAUUACUACUGAGAAGGCACAUGAGGAUCACCCAUGUUCCUU [Mat - Exclusion 4 - Mod of Salish - D64] (puzzle: Exclusion 4) |  |  | 14.9 nM | 
11 | CUUUUGUGAGGAUAUCAGUAGUAGAACAAUAGUACUACUACUGAGAAGGCACAUGAGGAUCACCCAUGUUCUUC [Fiskers Ex 4 Super stable 44 mod 5] (puzzle: Exclusion 4) |  |  | 27.8 nM | 
12 | CUUUUGUGAGGAUAUCAGUAGUAUAUAAAUAAAAUUACUACUGAGAAGGCACAUGAGGAUCACCCAUGUUCCUC [salish99_ex3_r3_076] (puzzle: Exclusion 4) |  |  | 35.5 nM | 
13 | CUUUUGUGAGGAUAUGGUCUCGAUGACAUGAGGAUCACCCAUGUAACAUGGGACUUGUGACUAGAAGGCACUAACG [JR_Ex5_Sub024] (Eterna round: R97, puzzle: Exclusion 5) | 22.6 nM | 16.4 nM |  | 
14 | CUUUUGUGAGGAUAUUAGUAGUAAAUAAAUAAAAUUACUACUGAGAAGGCACAUGAGGAUCACCCAUGUUCCUU [salish99_ex4_r3_067] (puzzle: Exclusion 4) |  |  | 14 nM | 
15 | CUUUUGUGAGGAUAUUAGUAGUAAAUAAAUAAAAUUACUACUGAGAAGGUACAUGAGGAUCACCCAUGUUCCUC [salish99_ex4_r3_044] (puzzle: Exclusion 4) |  |  | 15.8 nM | 
16 | CUUUUGUGAGGAUAUUAGUAGUAAAUAAAUAAAAUUAUUACUGAGAAGGCACAUGAGGAUCACCCAUGUUCCUC [salish99_ex4_r3_062] (Eterna round: R96, puzzle: Exclusion 4) | 533 nM | 36.6 nM |  | apparent KD of MS2 coat protein [1]: 32.9 nM
17 | CUUUUGUGAGGAUAUUAGUAGUAAAUAAAUAAAAUUAUUACUGAGAAGGCACAUGAGGAUCACCCAUGUUCCUC [salish99_ex4_r3_062] (puzzle: Exclusion 4) |  |  | 35.1 nM | 

Row | Sequence | apparent KD of MS2 coat protein (input ligand: FMN 200 uM) | apparent KD of MS2 coat protein (input ligand: none) | apparent KD of MS2 coat protein [2] | further results
18 | CUUUUGUGAGGAUAUUAGUAGUAAAUAAUUAAAAUUAUUACUGAGAAGGCACAUGAGGAUCACCCAUGUUCCUC [Salish 062 v15] (Eterna round: R97, puzzle: Exclusion 4) | 752 nM | 42.9 nM |  | 
19 | CUUUUUGUCGAGGAUAUGCACCAGCUCACUGACGCAGAAGGCGACACAUGAGGAUCACCCAUGUCAGUUCGCGU [salish99_ex6_r004_433] (Eterna round: R97, puzzle: Exclusion 6) | 35.3 nM | 20 nM |  | 
20 | GAAAACCAAGGAUAUACAUGAGGAUCACCCAUGUAGGUUGGGACGCCAUAAAGGCGAUGUAGAAGGUGGGAAAA [Inansoge] (puzzle: Exclusion 3) |  |  | 21.6 nM | 
21 | GAAAACGAAGAGGAUAUUUGAUAUCAAAGCUUCAAAGAAGGCUUCACAUGAGGAUCACCCAUGUGAUCUUCAAU [Mat - Exclusion 6 - JL Mod - D15] (Eterna round: R97, puzzle: Exclusion 6) | 212 nM | 24.5 nM |  | 
22 | GAAAACGCAGAGGAUAUUUCAGAUCCUAGCUGCAAAGAAGGCUGCACAUGAGGAUCACCCAUGUGGUCCUGAAA [Quesina mod] (Eterna round: R97, puzzle: Exclusion 6) | 116 nM | 38.6 nM |  | 
23 | GAAAACGUAGGAUAUUAAUACUUAGACAUGAGGAUCACCCAUGUUUGGUGGGUCGGAGAAUGAGAAGGGCGAUGAA [EX5 #13] (Eterna round: R97, puzzle: Exclusion 5) | 107 nM | 153 nM |  | 
24 | GAAAAGAAAGGAUAUACAGGGAAAUGAACCGCACGUAAACCACAUGAGGAUCACCCAUGUAGAAGGUUCAGUGC [Edenusra] (puzzle: Exclusion 2) |  |  | 10.6 nM | 
25 | GAAAAGGUAGGAUAUACGAAAAAAAAGGCUAGAAAAAAAACACAUGAGGAUCACCCAUGUAGAAGGACCAAAAG [salish99_ex2_r3_068] (puzzle: Exclusion 2) |  |  | 28.8 nM | apparent KD of MS2 coat protein [3]: 28.7 nM; apparent KD of MS2 coat protein [4]: 24 nM
26 | GAAAAGGUAGGAUAUACGAAAAAAAAGGGCAGAAAAAAAACACAUGAGGAUCACCCAUGUAGAAGGACCAAAAG [salish99_ex2_r3_065] (puzzle: Exclusion 2) |  |  | 24.3 nM | apparent KD of MS2 coat protein [3]: 26.6 nM; apparent KD of MS2 coat protein [4]: 23.2 nM
27 | GAAAAGGUAGGAUAUACGAAAAAAAAGGGUACAAAAAAAACACAUGAGGAUCACCCAUGUAGAAGGACCAAAAG [salish99_ex2_r3_063] (puzzle: Exclusion 2) |  |  | 25.6 nM | apparent KD of MS2 coat protein [3]: 36.8 nM; apparent KD of MS2 coat protein [4]: 20.8 nM
28 | GAAAAGGUAGGAUAUACGAAAAAAAAGGGUAGAAAAAAGACACAUGAGGAUCACCCAUGUAGAAGGACCAAAAG [salish99_ex2_r3_019] (puzzle: Exclusion 2) |  |  | 21.7 nM | apparent KD of MS2 coat protein [3]: 62.5 nM; apparent KD of MS2 coat protein [4]: 30.3 nM
29 | GAAAAGGUAGGAUAUACGAAAAAAAAGGGUAGAAGAAAAACACAUGAGGAUCACCCAUGUAGAAGGACCAAAAG [salish99_ex2_r3_022] (puzzle: Exclusion 2) |  |  | 18.6 nM | apparent KD of MS2 coat protein [3]: 107 nM; apparent KD of MS2 coat protein [4]: 23.5 nM
30 | GAAAAGGUAGGAUAUACGAAAAAAAAGGGUAGAGAAAAAACACAUGAGGAUCACCCAUGUAGAAGGACCAAAAG [salish99_ex2_r3_023] (puzzle: Exclusion 2) |  |  | 27.1 nM | apparent KD of MS2 coat protein [3]: 84.8 nM; apparent KD of MS2 coat protein [4]: 26.7 nM
31 | GAAAAGGUAGGAUAUACGAAAAGAAAGGGUAGAAAAAAAACACAUGAGGAUCACCCAUGUAGAAGGACCAAAAG [salish99_ex2_r3_027] (puzzle: Exclusion 2) |  |  | 26.9 nM | apparent KD of MS2 coat protein [3]: 58.7 nM; apparent KD of MS2 coat protein [4]: 25 nM
32 | GAAAAGGUAGGAUAUACGGAAAAAAAGGGUAGAAAAAAAACACAUGAGGAUCACCCAUGUAGAAGGACCAAAAG [salish99_ex2_r3_030] (puzzle: Exclusion 2) |  |  | 32.5 nM | apparent KD of MS2 coat protein [3]: 60.9 nM; apparent KD of MS2 coat protein [4]: 27.4 nM
33 | GAAAAGGUAGGAUAUACGUAAAAAAAGGGUAGAAAAAAAACACAUGAGGAUCACCCAUGUAGAAGGACCAAAAG [salish99_ex2_r3_087] (puzzle: Exclusion 2) |  |  | 24.7 nM | apparent KD of MS2 coat protein [3]: 88.3 nM; apparent KD of MS2 coat protein [4]: 20.6 nM
